Measured values taken from paper PMC3753316, “The Interaction between Factor H and Von Willebrand Factor” (PLoS ONE, 2013).
Values belong to the molecule of their own block, whether it stands above or below them.

Legend:
[1] = target: recombinant VWF-A2 as used in the ELISA and Biacore experiments (human) (UniProt P04275); test: SPR; Biacore 3000, 25 C; VWF-A2 (1000 RU) or VWF-A3 (800 RU) immobilised; fH 40 to 640 nM, 20 uL/min; for VWF-A2 responses at equilibrium fitted to a one-site binding isotherm
[2] = target: recombinant His-tagged VWF-A1 domain (amino acids Q1238-D1471) (human); test: SPR; Biacore 3000, 25 C; VWF-A1 immobilised (1500 RU); fH 40 to 640 nM, 20 uL/min; fitted to two-state model; apparent KD
[3] = target: plasma purified human VWF (human); test: SPR; Biacore 3000, 25 C; VWF immobilised by amine coupling (2100 RU); fH 5 to 320 nM in HBS with 50 uM ZnCl2, 30 uL/min; global fit to two-state model; apparent KD
[4] = target: T1, plasma purified human factor H (human, UniProt P08603 19-1231); test: co-IP; plasma-purified fH (30 nM) incubated with His-tagged VWF-A1, -A2 (E. coli or HEK 293), -A3 or Myc-tagged VWF-BC (100 nM); precipitated with anti-fH antibody or IgG; blot anti-VWF; details: both partners purified
T1 construct: complement factor H, human, purified from plasma (150 kD, 20 SCRs); also the endogenous protein in normal serum; also called fH; complement factor H; source: bought: Complement Technology Inc., plasma purified; endogenous, normal human serum
T1 sequence (P08603 19-1231): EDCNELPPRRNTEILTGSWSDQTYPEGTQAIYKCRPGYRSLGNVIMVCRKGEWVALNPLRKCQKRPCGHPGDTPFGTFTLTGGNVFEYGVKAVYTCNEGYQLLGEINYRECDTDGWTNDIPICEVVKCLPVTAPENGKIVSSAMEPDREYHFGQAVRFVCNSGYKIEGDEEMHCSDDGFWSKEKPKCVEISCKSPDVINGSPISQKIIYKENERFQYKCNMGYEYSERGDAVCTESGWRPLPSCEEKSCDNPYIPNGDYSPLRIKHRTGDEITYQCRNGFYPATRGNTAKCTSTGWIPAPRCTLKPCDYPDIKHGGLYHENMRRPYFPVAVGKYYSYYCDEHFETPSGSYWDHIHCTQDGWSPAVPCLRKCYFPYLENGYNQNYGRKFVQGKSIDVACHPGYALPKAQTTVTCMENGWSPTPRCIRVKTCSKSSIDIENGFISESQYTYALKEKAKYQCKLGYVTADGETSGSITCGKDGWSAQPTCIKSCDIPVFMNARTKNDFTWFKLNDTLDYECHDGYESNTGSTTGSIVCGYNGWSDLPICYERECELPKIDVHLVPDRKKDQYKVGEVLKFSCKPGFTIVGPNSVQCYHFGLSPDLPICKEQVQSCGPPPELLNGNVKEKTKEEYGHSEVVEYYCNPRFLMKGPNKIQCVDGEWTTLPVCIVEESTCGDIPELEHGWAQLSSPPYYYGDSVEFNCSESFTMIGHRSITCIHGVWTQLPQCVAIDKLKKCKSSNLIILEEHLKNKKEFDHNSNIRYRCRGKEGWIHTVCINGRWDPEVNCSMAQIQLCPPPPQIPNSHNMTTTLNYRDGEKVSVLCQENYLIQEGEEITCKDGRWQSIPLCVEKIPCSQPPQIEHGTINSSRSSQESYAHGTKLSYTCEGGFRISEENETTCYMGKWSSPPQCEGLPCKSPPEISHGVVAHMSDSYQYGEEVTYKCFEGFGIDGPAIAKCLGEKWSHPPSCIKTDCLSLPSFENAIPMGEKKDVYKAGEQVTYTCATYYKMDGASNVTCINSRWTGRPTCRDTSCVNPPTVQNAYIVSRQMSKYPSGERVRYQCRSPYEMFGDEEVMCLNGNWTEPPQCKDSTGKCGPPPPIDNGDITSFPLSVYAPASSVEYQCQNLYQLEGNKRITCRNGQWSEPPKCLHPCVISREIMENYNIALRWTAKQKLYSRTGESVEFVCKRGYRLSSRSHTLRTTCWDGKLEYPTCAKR

[5] = target: T2, truncated fH F3 with SCRs 1-15, amino acids M1-G928 (human, UniProt P08603 19-928); test: pull-down; GST-VWF-A2 (100 nM) incubated with recombinant F4, F3, F2 or F1 (30 nM each); glutathione agarose beads, overnight 4 C; blot polyclonal or monoclonal (90X) anti-fH; details: both partners purified
T2 construct: signal peptide in the construct; complement factor H, human, SCRs 1-15, amino acids M1-G928, in pSecTag2B His tag vector; source: HEK 293, stably transfected, secreted into serum-free medium, purified (Ni-NTA)
T2 sequence (P08603 19-928): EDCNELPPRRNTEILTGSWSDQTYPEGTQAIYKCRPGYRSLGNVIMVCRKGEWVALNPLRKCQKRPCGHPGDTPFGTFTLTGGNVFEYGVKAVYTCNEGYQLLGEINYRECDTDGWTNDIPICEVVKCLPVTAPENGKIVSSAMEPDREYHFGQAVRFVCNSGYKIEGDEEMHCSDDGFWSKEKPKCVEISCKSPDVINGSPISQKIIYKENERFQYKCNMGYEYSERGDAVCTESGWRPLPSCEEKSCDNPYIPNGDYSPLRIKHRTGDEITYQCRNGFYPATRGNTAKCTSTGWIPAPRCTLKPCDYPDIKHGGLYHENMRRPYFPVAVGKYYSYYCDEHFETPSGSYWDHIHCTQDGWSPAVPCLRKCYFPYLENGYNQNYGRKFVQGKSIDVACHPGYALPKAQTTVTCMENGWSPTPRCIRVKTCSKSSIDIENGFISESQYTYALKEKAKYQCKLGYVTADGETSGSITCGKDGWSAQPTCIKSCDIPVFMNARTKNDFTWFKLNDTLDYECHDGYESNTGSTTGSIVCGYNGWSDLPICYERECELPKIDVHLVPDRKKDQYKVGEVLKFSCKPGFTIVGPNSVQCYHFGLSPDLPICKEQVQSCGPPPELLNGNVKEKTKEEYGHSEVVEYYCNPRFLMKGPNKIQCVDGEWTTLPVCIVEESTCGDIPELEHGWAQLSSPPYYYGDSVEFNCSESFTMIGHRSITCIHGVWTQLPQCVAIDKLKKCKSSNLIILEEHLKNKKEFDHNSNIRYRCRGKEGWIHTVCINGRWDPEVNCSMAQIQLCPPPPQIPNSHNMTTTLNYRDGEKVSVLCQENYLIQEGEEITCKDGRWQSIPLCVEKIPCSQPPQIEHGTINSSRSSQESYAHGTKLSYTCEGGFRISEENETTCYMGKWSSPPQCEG

[6] = target: T3, recombinant full-length wild type human fH (F4 with SCRs 1-20, amino acids M1-R1231) (human, UniProt P08603 19-1231); test: as above; details: both partners purified
T3 construct: signal peptide in the construct; complement factor H, human, SCRs 1-20, amino acids M1-R1231, in pSecTag2B His tag vector; also called full-length recombinant fH; source: HEK 293, stably transfected, secreted into serum-free medium, purified (Ni-NTA)
T3 sequence (P08603 19-1231): as the sequence (P08603 19-1231) above

[7] = target: T4, truncated fH F2 with SCRs 1-10, amino acids M1-E625 (human, UniProt P08603 19-625); test: as above; details: both partners purified
T4 construct: signal peptide in the construct; complement factor H, human, SCRs 1-10, amino acids M1-E625, in pSecTag2B His tag vector; source: HEK 293, stably transfected, secreted into serum-free medium, purified (Ni-NTA)
T4 sequence (P08603 19-625): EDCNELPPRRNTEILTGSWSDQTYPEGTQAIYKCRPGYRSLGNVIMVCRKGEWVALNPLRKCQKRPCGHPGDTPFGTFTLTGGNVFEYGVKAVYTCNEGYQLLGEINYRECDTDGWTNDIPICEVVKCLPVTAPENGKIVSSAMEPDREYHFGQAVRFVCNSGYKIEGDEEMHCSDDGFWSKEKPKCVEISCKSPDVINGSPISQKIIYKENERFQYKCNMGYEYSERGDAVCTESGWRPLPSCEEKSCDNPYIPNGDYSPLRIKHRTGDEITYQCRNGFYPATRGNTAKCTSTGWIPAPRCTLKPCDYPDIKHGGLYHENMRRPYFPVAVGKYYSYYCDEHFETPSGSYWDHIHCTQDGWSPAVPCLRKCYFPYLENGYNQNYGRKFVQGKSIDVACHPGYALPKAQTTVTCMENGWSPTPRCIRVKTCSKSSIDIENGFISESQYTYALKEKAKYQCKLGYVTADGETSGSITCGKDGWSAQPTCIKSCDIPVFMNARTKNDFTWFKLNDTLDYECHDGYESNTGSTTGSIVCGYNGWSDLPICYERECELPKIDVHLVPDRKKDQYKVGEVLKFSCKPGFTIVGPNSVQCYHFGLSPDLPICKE

- Kd [1]: 147 nM
- Kd [2]: 161 nM
- ka1 (binding step, two-state model) [2]: 53600 M⁻¹ s⁻¹
- ka2 (forward rate, conformational change step) [2]: 0.00797 s⁻¹
- kd1 (binding step, two-state model) [2]: 0.0358 s⁻¹
- kd2 (backward rate, conformational change step) [2]: 0.00254 s⁻¹
- Kd [3]: 32.9 nM
- ka1 (binding step, two-state model) [3]: 60000 M⁻¹ s⁻¹
- ka2 (forward rate, conformational change step) [3]: 0.007 s⁻¹
- kd1 (binding step, two-state model) [3]: 0.0158 s⁻¹
- kd2 (backward rate, conformational change step) [3]: 0.0009 s⁻¹
Molecule: plasma purified human factor H (from UniProt P08603 19-1231) (natural protein)

- binding result [4]: binds
B1: recombinant His-tagged VWF-A2 (amino acids P1480-G1672), purified from transfected HEK 293 cells (domain or fragment)
chain: PGLLGVSTLGPKRNSMVLDVAFVLEGSDKIGEADFNRSKEFMEEVIQRMDVGQDSIHVTVLQYSYMVTVEYPFSEAQSKGDILQRVREIRYQGGNRTNTGLALRYLSDHSFLVSQGDREQAPNLVYMVTGNPASDEIKRLPGDIQVVPIGVGPNANVQELERIGWPNAPILIQDFETLPREAPDLVLQRCCSG
notes: von Willebrand factor A2 domain, amino acids P1480-G1672, in pSecTag2B His-tag vector; also called His-tagged A2; source: HEK 293, purified (Ni-NTA)

- binding result [5]: binds
- binding result [6]: binds
- binding result [7]: binds
B2: GST-VWF-A2 fusion protein (amino acids P1480-G1672) (domain or fragment)
chain: B1 chain
notes: von Willebrand factor A2 domain, amino acids P1480-G1672, in pGEX-2T GST vector; also called GST-A2; recombinant VWF-A2; source: E. coli, purified (glutathione agarose beads)

- binding result [4]: binds
B3: recombinant His-tagged VWF-A2 (amino acids G1481-R1668), purified from transfected E. coli (domain or fragment)
chain: GLLGVSTLGPKRNSMVLDVAFVLEGSDKIGEADFNRSKEFMEEVIQRMDVGQDSIHVTVLQYSYMVTVEYPFSEAQSKGDILQRVREIRYQGGNRTNTGLALRYLSDHSFLVSQGDREQAPNLVYMVTGNPASDEIKRLPGDIQVVPIGVGPNANVQELERIGWPNAPILIQDFETLPREAPDLVLQR
notes: von Willebrand factor A2 domain, amino acids G1481-R1668; source: E. coli, purified (Ni-NTA)
